Article PMC10205607, “MAP4K3 inhibits Sirtuin-1 to repress the LKB1–AMPK pathway to promote amino acid-dependent activation of the mTORC1 complex” (Life Science Alliance, 2023)

Target: T1, FLAG-LKB1 (UniProt Q15831 1-433)
T1 construct: Liver kinase B1 (LKB1); also called liver kinase B1; source: HEK293A (WT or MAP4K3 k.o.), transfected, in lysate
T1 sequence (looked up): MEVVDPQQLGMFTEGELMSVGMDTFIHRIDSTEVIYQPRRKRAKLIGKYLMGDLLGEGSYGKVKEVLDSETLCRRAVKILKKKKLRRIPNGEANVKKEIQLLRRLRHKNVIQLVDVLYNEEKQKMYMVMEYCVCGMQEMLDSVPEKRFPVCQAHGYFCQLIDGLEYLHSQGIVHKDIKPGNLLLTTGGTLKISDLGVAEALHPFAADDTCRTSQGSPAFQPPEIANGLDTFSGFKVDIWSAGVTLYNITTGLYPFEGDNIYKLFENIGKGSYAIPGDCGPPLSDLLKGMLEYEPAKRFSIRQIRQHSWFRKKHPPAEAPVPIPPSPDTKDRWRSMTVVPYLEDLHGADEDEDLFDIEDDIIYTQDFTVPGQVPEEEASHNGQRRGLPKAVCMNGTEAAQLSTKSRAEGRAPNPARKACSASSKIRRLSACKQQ
Assay: co-IP; anti-FLAG IP from lysates of co-transfected HEK293A cells (WT or MAP4K3 k.o.), blot with anti-HA and anti-FLAG; lysis buffer 25 mM HEPES-KOH pH 7.4, 150 mM NaCl, 5 mM EDTA, 1% Triton X-100; 2 h at 4°C
Conditions: partners not purified

fold change of the co-precipitate against WT SIRT1 with LKB1 (in MAP4K3 k.o. cells): ~2 fold
B1: SIRT1-HA-T344D (enzyme, UniProt Q96EB6 1-747, looked up)
chain: MADEAALALQPGGSPSAAGADREAASSPAGEPLRKRPRRDGPGLERSPGEPGGAAPEREVPAAARGCPGAAAAALWREAEAEAAAAGGEQEAQATAAAGEGDNGPGLQGPSREPPLADNLYDEDDDDEGEEEEEAAAAAIGYRDNLLFGDEIITNGFHSCESDEEDRASHASSSDWTPRPRIGPYTFVQQHLMIGTDPRTILKDLLPETIPPPELDDMTLWQIVINILSEPPKRKKRKDINTIEDAVKLLQECKKIIVLTGAGVSVSCGIPDFRSRDGIYARLAVDFPDLPDPQAMFDIEYFRKDPRPFFKFAKEIYPGQFQPSLCHKFIALSDKEGKLLRNYDQNIDTLEQVAGIQRIIQCHGSFATASCLICKYKVDCEAVRGDIFNQVVPRCPRCPADEPLAIMKPEIVFFGENLPEQFHRAMKYDKDEVDLLIVIGSSLKVRPVALIPSSIPHEVPQILINREPLPHLHFDVELLGDCDVIINELCHRLGGEYAKLCCNPVKLSEITEKPPRTQKELAYLSELPPTPLHVSEDSSSPERTSPPDSSVIVTLLDQAAKSNDDLDVSESKGCMEEKPQEVQTSRNVESIAEQMENPDLKNVGSSTGEKNERTSVAGTVRKCWPNRVAKEQISRRLDGNQYLFLPPNRYIFHGAEVYSDSEDDVLSSSSCGSNSDSGTCQSPSLEEPMEDESEIEEFYNGLEDEPDVPERAGGAGFGTDGDDQEAINEAISVKQEVTDMNYPSNKS
notes: Derived from the SIRT1-HA construct; also called SIRT1-T344D; SIRT1-T344D-HA; source: MAP4K3 k.o; HEK293A (M4 line), transfected, in lysate
